Reference: article PMC6151454, “The Recognition of Calmodulin to the Target Sequence of Calcineurin—A Novel Binding Mode” (Molecules : A Journal of Synthetic Chemistry and Natural …, 2017)

Target: Calmodulin (CaM), chicken, recombinant (chicken, UniProt P62149 2-149)
Assay: circular dichroism titration; various amounts of CaNp added to a fixed amount of CaM; far-UV CD; 100 mM KCl, 2 mM CaCl2, pH 6.5
Conditions: both partners purified

B1: CaM-binding domain (target peptide) of calcineurin A, residues 391-414 (CaNp) (peptide)
peptide: ARKEVIRNKIRAIGKMARVFSVLR
notes: CaM target domain of the calcineurin catalytic subunit (CaN-A) α-isoform, residue 391-414; 13C,15N-labelled or unlabelled in the NMR samples; also called target peptide of CaN; not shown: CaM with factor Xa cleavage site IEGR (CaM-CaNp hybrid molecule), N-terminal, cleaved
stoichiometry N: 1
